The record followed here is PMC5357137.

Broadly, the Kd is a measure of binding affinity in units of concentration.

Data set [1] relates to MuA transposase in cleaved-donor complex (CDC, WT transpososome) (bacteriophage Mu). Kind of data set: fluorescence anisotropy. Particulars: Mg2+, CDC with 3'ddA Mu ends, Anisotropy: purified CDCs diluted in reaction buffer with MgCl2 (+/- DMSO; concentrations, salt and pH not in material), 6 nM Atto565 target DNA, 1 h, room ….
Data set [2] relates to MuA delta domain III (catalytic subunits of delta domain III CDC);SinMu chimera (non-catalytic subunits) (bacteriophage Mu;bacteriophage Mu; Sin recombinase (organism not stated)). Kind of data set: fluorescence anisotropy. As to conditions: Mg2+, DMSO; CDC with 3'ddA Mu ends; single G:G mismatch at center; Anisotropy: purified CDCs diluted in reaction buffer with MgCl2 (+/- DMSO; concentrations, salt and pH not in material), 6 nM Atto565 target DNA, 1 h, room …. For orientation: In fluorescence polarisation assays a small probe gives low polarisation when free and higher when bound to something large.

On to “target DNA with central G:G mismatch, 35 bp”, for which the Kd was determined as 15 nM in data set [1] (DMSO, Hill coefficient 2.6, single G:G mismatch at center); 15 nM in data set [1] (no DMSO, Hill coefficient 3.3, single G:G mismatch at center); 38 nM in data set [2].

On to target DNA, fully base paired, 35 bp, for which the Kd in data set [1] (DMSO) was found to be 29 nM.
